We go through one substance from paper PMC3111433.

For this test, the target named is Francisella tularensis subsp. holarctica LVS 2-C-methyl-D-erythritol 4-phosphate cytidylyltransferase (Francisella tularensis subsp. holarctica LVS). Briefly: SEC. On the technique in general: In gel filtration, larger molecules generally elute earlier.

For orientation: stoichiometry N means a count of units in the complex or per binding partner.

Consider “Francisella tularensis subsp. holarctica LVS 2-C-methyl-D-erythritol 4-phosphate cytidylyltransferase (enzyme)”, for which the stoichiometry N was 2.
